Laboratory results taken from patent US20050085420A1, “Method of modulating apoptosis and compositions thereof” (priority 2003, published 2005).
Residue numbers refer to the chain shown, from its start. In names and notes the source's numbering stands.

How the values were obtained:
[1] = system: BAK-X complex; assay: DSS cross-linking of BAK-X complex in FL5.12 cells treated with death stimuli; format: cell-based; conditions: TNFα plus cyclohexamide 5 hours, etoposide (VP16) 24 hours, 10 mM DSS
Method: FIG. 1B is an illustration depicting the treatment of FL5.12 cells with either TNFα plus cyclohexamide (CHX) for 5 hours (lane 3), etoposide (VP16) for 24 hours (lane 4), or deprived of IL-3 for 18 hours (lane 5), followed by incubation with 10 mM DSS. The BAK-X complex was detected in whole cell lysates by an immunoblot developed with anti-BAK antibody.
Protein crosslinkers were used to search for a candidate protein that interacts with BAK at the mitochondria in viable cells. A ˜60 kD mobility-shifted complex immunoreactive with an antibody (Ab) to BAK was detected after treatment of purified mitochondria (FIG. 1A) or viable whole cells (FIG. 1B) with the crosslinker disuccinimidyl suberate (DSS). This presumed complex between BAK and a candidate ˜35 kD interacting protein was designated “BAK-X.” The ˜60 kD BAK-X complex was distinct in size as compared to BAK homo-oligomers detected by bismaleimidohexane (BMH) crosslinking (FIG. 1A). The same sized BAK complex was detected in multiple cell lines and in normal liver prior to death stimuli (FIG. 1C). The BAK-X complex was lost when mitochondria were treated with tBID (FIG. 1A, C) or cells were treated with death stimuli including TNFα, etoposide, or withdrawal of survival factor (FIG. 1B). Expression of BH3-only members BAD, BIM, or tBID killed cells and diminished the amount of BAK-X complex (FIG. 1D). […]

[2] = biological target: T1, BAK-X complex (Mus musculus, UniProt O08734+Q60930); assay: BAK-X complex after retroviral transduction of BH3-only members in wt MEFs; format: cell-based; conditions: 24 hours following retroviral transduction, DSS
T1 construct: isolation of mitochondria (50 μg) from wild-type (wt) mouse embryonic fibroblasts (MEFs); endogenous in cells; host or cells: mitochondria from wt MEFs
T1 sequence (O08734 2-209 limits assumed): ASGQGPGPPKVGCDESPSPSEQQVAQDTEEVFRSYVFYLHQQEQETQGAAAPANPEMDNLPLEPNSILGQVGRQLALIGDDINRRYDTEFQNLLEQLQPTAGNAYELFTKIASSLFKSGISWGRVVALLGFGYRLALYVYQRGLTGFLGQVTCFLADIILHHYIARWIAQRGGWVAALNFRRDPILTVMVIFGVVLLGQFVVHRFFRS
T1 sequence (Q60930 1-295): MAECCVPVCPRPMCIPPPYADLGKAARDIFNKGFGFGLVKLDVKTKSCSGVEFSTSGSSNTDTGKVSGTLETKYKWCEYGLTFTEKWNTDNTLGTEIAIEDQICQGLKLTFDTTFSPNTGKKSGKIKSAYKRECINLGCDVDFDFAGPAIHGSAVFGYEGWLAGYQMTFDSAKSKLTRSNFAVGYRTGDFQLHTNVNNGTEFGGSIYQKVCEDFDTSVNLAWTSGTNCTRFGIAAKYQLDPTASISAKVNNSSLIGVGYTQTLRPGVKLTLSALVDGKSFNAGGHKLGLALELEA
Method: FIG. 1D is a photograph depicting isolated mitochondria from wt MEFs, in which the isolated mitochondria were treated with DSS 24 hours following retroviral transduction of tBID, BIM, or BAD. The BAK-X complex was detected by an immunoblot developed with an anti-BAK antibody.
(§1) Murine vdac1, vdac2, N-terminal HA-tagged vdac2, N-terminal-HA tagged Bax or Bak, as well as wild type and mutant Bak (mBH1, W122A, G123E, R124A; mBH3, L75E) were cloned into the retroviral expression vector MSCV-IRES-GFP (pMIG). PcDNA3-tBID (wt and mutants) was described previously M. C. Wei et al., Genes Dev 14, 2060-71. (2000). Generation of amphotropic retroviruses and retroviral infection were described previously E. H. Cheng et al., Mol Cell 8, 705-11. (2001).
Protein crosslinkers were used to search for a candidate protein that interacts with BAK at the mitochondria in viable cells. […] Wei et al., Genes Dev 14, 2060-71. (2000).

[3] = system: wt MEFs; assay: Cell killing by expression of BH3-only members; format: cell-based, mouse; conditions: retroviral expression
[4] = biological target: T2, VDAC2 (Mus musculus, UniProt Q60930); assay: Anti-HA immunoprecipitation of HA-tagged VDAC2 with BH3-only molecules; format: binding; conditions: for interaction with HA-tagged VDAC2 (co-immunoprecipitation): mitochondria, anti-HA immunoprecipitation, 1% CHAPS (or 0.2% NP40)
T2 construct: expressed in transfected cells; host or cells: vdac1 -/-, vdac3 -/- mouse fibroblasts; wt or vdac2 -/- MEFs; Bax, Bak doubly deficient MEFs (retrovirus pMIG)
T2 sequence (Q60930 1-295): T1 sequence (Q60930 1-295)
Description: as §1, with “(2001). Retroviral expression of each indicated protein was confirmed by immunoblot. […]” for “(2001).”
The strength of association between BIM-EL and VDAC2 was compared to the strength of the association, if any, between BIM-EL and BAK or BAX. Mitochondria isolated from Bax, Bak doubly deficient MEFs transduced with retrovirus expressing N-terminal HA-tagged BAX, BAK, or VDAC2 were solubilized in 1% CHAPS or 0.2% NP-40 buffer, followed by anti-HA immunoprecipitation. The immunoprecipitates were analyzed by an immunoblot developed with anti-BIM. […] These findings indicate that BH3-only competition for VDAC2 frees BAK, which, in the absence of its specific inhibitor VDAC2, is prone to auto-activating homo-oligomerization. […]

[5] = system: Bax -/- MEFs; assay: Annexin-V cell death after retroviral expression of VDAC1 or VDAC2 in Bax -/- MEFs; format: cell-based, mouse; conditions: Bax -/- cells, retroviral expression, 1.2 μM staurosporine or 10 μg/ml etoposide, Annexin-V
Method: (§2) FIG. 3A are two graphs illustrating Bax -/- or Bak -/- MEFs at 2 days following retroviral expression of VDAC1, VDAC2, or GFP (MIG vector control), wherein the Bax -/- or Bak -/- MEFs were treated with 1.2 μM staurosporine (STS). Cell death was quantitated by flow cytometric detection of Annexin-V staining at indicated time points. Values shown are mean ±1 SD of three independent experiments.
(§3) FIG. 3B is a histogram depicting Bax -/- or Bak -/- MEFs at 2 days following retroviral expression of VDAC2 or GFP (MIG vector control), wherein the Bax -/- or Bak -/- MEFs were infected with tBID-expressing retrovirus. Cell death was quantitated by flow cytometric detection of Annexin-V staining at 24 hr. Values shown are mean ±1 SD of three independent experiments.
as §2, with “6” for “3A”, “that depict” for “illustrating”, “10 μg/ml etoposide.” for “1.2 μM staurosporine (STS).”
(§4) Previous studies have shown that cells doubly deficient for BAX and BAK are resistant to intrinsic death stimuli, whereas cells singly deficient for BAX or BAK are still susceptible (M. C. Wei et al., Science 292, 727-30. (2001)). As VDAC2 interacts with BAK but not BAX, the ability of VDAC2 to modulate apoptosis mediated by BAK or BAX was tested. According to one hypothesis, VDAC2 might function as an inhibitor of BAK or VDAC2 itself might function as a proapoptotic factor once released from BAK. To address these alternatives VDAC 1 or VDAC2 was expressed in Bax -/- or Bak -/- singly deficient mouse embryonic fibroblasts (MEFs) followed by treatment with staurosporine or etoposide. […] Expression of VDAC2 inhibited tBID-induced apoptosis of Bax -/- cells but not Bak -/- cells, further supporting a selective role for VDAC2 in negatively regulating BAK-dependent apoptosis (FIG. 3B).

[6] = system: Bak -/- MEFs; assay: Annexin-V cell death after retroviral expression of VDAC1 or VDAC2 in Bak -/- MEFs; format: cell-based, mouse; conditions: Bak -/- cells, retroviral expression, 1.2 μM staurosporine or 10 μg/ml etoposide, Annexin-V
Method: as §2, §3
as §2, with “6” for “3A”, “that depict” for “illustrating”, “10 μg/ml etoposide.” for “1.2 μM staurosporine (STS).”
as §4

[7] = biological target: T1, BAK-X complex; assay: DSS cross-linking of BAK-X complex in isolated mitochondria, anti-BAK immunoblot; format: biochemical; conditions: liver mitochondria 50 μg, 5 μl in vitro transcribed-translated mutant tBID, 30° C. 30 min
Method: FIG. 1A is an illustration depicting isolation of mitochondria (50 μg) from wild-type (wt) mouse embryonic fibroblasts (MEFs). The isolated mitochondria were incubated with recombinant tBID protein (50 ng) at 30° C. for 30 min, followed by treatment with the cross-linkers disuccinimidyl suberate (DSS) (10 mM) or bismaleimidohexane (BMH) (10 mM) at room temperature for 30 minutes. Higher order BAK complexes were identified by immunoblot developed with an anti-BAK antibody.
FIG. 1C is an illustration depicting treatment of mitochondria (50 μg) isolated from mouse liver, Bal17, Jurkat, and FL5.12 cells with 50 ng tBID protein at 30° C. for 30 min, followed by DSS cross-linking. The BAK-X complex was detected by an immunoblot developed with anti-BAK antibody.
FIG. 1E is a photograph depicting isolated liver mitochondria (50 μg) which were incubated with 5 μl of in vitro transcribed-translated wt or mutant tBID at 30° C. for 30 min, followed by DSS cross-linking. The BAK-X complex was detected by an immunoblot developed with anti-BAK antibody. […]
Protein crosslinkers were used to search for a candidate protein that interacts with BAK at the mitochondria in viable cells. A ˜60 kD mobility-shifted complex immunoreactive with an antibody (Ab) to BAK was detected after treatment of purified mitochondria (FIG. 1A) or viable whole cells (FIG. 1B) with the crosslinker disuccinimidyl suberate (DSS). […]

TNFα was tested, and the “BAK-X complex when cells were treated with death stimuli” value [1] was “lost”.

`COc1cc([C@@H]2c3cc4c(cc3[C@@H](O[C@@H]3O[C@@H]5CO[C@@H](C)O[C@H]5[C@H](O)[C@H]3O)[C@H]3COC(=O)[C@H]23)OCO4)cc(OC)c1O` [etoposide] was tested, and the “BAK-X complex when cells were treated with death stimuli” value [1] was “lost”.

B1: BIM: BH3-only BCL-2 family member, retrovirally expressed (protein, UniProt O54918 1-196, looked up)
Bcl-2-like protein 11: MAKQPSDVSSECDREGGQLQPAERPPQLRPGAPTSLQTEPQGNPDGEGDRCPHGSPQGPLAPPASPGPFATRSPLFIFVRRSSLLSRSSSGYFSFDTDRSPAPMSCDKSTQTPSPPCQAFNHYLSAMASIRQSQEEPEDLRPEIRIAQELRRIGDEFNETYTRRVFANDYREAEDHPQMVILQLLRFIFRLVWRRH
In the case of B1, the “amount of BAK-X complex” value [2] is reported as “diminished” and the “cell killing on expression” value [3] is reported as “killed cells”.

B2: BIM-EL: BH3-only molecule BIM-EL (protein)
chain: B1 Bcl-2-like protein 11
For B2, the “strength of association with VDAC2 compared to BAX or BAK” value ([4]; Bax, Bak doubly deficient MEFs with HA-tagged BAX, BAK or VDAC2, 1% CHAPS or 0.2% NP-40) was “associate more strongly with VDAC2 than BAX or BAK” and the “interaction with HA-tagged VDAC2 (co-immunoprecipitation)” value [4] was “strong interaction”.

B3: VDAC1: murine VDAC1 isoform, retrovirally expressed (protein)
chain: AVPPTYADLGKSARDVFTKGYGFGLIKLDLKTKSENGLEFTSSGSANTETTKVNGSLETKYRWTEYGLTFTEKWNTDNTLGTEITVEDQLARGLKLTFDSSFSPNTGKKNAKIKTGYKREHINLGCDVDFDIAGPSIRGALVLGYEGWLAGYQMNFETSKSRVTQSNFAVGYKTDEFQLHTNVNDGTEFGGSIYQKVNKKLETAVNLAWTAGNSNTRFGIAAKYQVDPDACFSAKVNNSSLIGLGYTQTLKPGIKLTLSALLDGKNVNAGGHKLGLGLEFQA
In the case of B3, the “apoptosis after staurosporine or etoposide” value [5] is reported as “no substantial effect” and the “apoptosis after staurosporine or etoposide” value [6] is reported as “no substantial effect”.

B4: BAD: BH3-only BCL-2 family member, retrovirally expressed (protein, UniProt Q61337 1-204, looked up)
Bcl2-associated agonist of …: MGTPKQPSLAPAHALGLRKSDPGIRSLGSDAGGRRWRPAAQSMFQIPEFEPSEQEDASATDRGLGPSLTEDQPGPYLAPGLLGSNIHQQGRAATNSHHGGAGAMETRSRHSSYPAGTEEDEGMEEELSPFRGRSRSAPPNLWAAQRYGRELRRMSDEFEGSFKGLPRPKSAGTATQMRQSAGWTRIIQSWWDRNLGKGGSTPSQ
With B4 the “amount of BAK-X complex” value [2] was “diminished” and the “cell killing on expression” value [3] was “killed cells”.

B5: mIII.1: mutant tBID with BH3 mutation mIII.1, still capable of binding BAK (protein)
chain: GSQASRSFNQGRIEPDSESQEEIIHNIARHLAQIGDEAAHNIQPTLVRQLAAQFMNGSLSEEDKRNCLAKALDEVKTAFPRDMENDKAMLIMTMLLAKKVASHAPSLLRDVFHTTVNFINQNLFSYVRNLVRNEMD
B5 was tested, and the “dissociation of the BAK-X complex by mutant tBID” value [7] was “caused dissociation”.

B6: mutant tBID mIII.4 (G94E) (other, UniProt P70444 60-195, looked up)
chain: B5 chain with G35E, A38M, A39D
notes: domain: p15 tBID; also called m111.4 mutant; m l 11.4
B6 was tested, and the “interaction with HA-tagged VDAC2 (co-immunoprecipitation)” value [4] was “did not recognize VDAC2” and the “dissociation of the BAK-X complex by mutant tBID” value [7] was “not”.
